# In patent publication US20110189183A1:
# Where a chain is given by its changes, count along the chain named.
# B1: 1H12 Fab (Fab, V domains shown)
# VH: EVQLVESGGGLVKAGGSLILSCGVSNFRISAHTMNWVRRVPGGGLEWVASISTSSTYRDYADAVKGRFTVSRDDLEDFVYLQMHKMRVEDTAIYYCARKGSDRLSDNDPFDAWGPGTVVTVSP
# VL: GVVMTQSPSTLSASVGDTITITCRASQSIETWLAWYQQKPGKAPKLLIYKASTLKTGVPSRFSGSGSGTEFTLTISGLQFDDFATYHCQHYMPYRASFGQGTRVEIKR
# B2: A1G7 Fab (Fab, V domains shown)
# VH: B1 VH
# VL: GVVMTQSPSTLSASVGDTITITCRASQSIETWLAWYQQKPGKAPKLLIYKASTLKTGVPSRFSGSGSGTEFTLTISGLQFDDFATYHCQHYTDHRGATFGQGTRVEIKR
# B3: A4F10 Fab (Fab, V domains shown)
# VH: B1 VH
# VL: B2 VL with R95Y
# B4: P2H12 Fab (Fab, V domains shown)
# VH: B1 VH
# VL: B2 VL with R95H
# B5: ID-3-RD5-P2H7 Fab (Fab, V domains shown)
# VH: B1 VH
# VL: B2 VL with T92R, D93A, R95S
# B6: ID-1-RD4-P2G9 Fab (Fab, V domains shown)
# VH: B1 VH
# VL: B1 VL with M92Q, Y94F, R95D, S97T
# B7: ID-3-RD6-P1H10 Fab (Fab, V domains shown)
# VH: B1 VH
# VL: B2 VL with D93A, R95N
# B8: ID-3-RD5-P2E9 Fab (Fab, V domains shown)
# VH: B1 VH
# VL: B2 VL with D93P, R95F
# B9: ID-2-RD6-P1H11 Fab (Fab, V domains shown)
# VH: B1 VH
# VL: B1 VL with P93A, R95D, S97T
# B10: ID-1-RD4-P2C10 Fab (Fab, V domains shown)
# VH: B1 VH
# VL: B1 VL with M92K, Y94F, R95M, S97T
# B11: ID-1-RD5-P2H8 Fab (Fab, V domains shown)
# VH: B1 VH
# VL: B1 VL with M92R, P93E, Y94W, R95H, S97T
# B12: ID-2-RD4-P1A5 Fab (Fab, V domains shown)
# VH: B1 VH
# VL: B1 VL with M92L, P93S, R95N, S97T
# B13: ID-2-RD6-P1H10 Fab (Fab, V domains shown)
# VH: B1 VH
# VL: B1 VL with M92Q, Y94F, R95K, S97T
# B14: 1F8 IgG (antibody, V domains shown)
# VH: B1 VH
# VL: B1 VL with M92L, Y94F, R95N, S97T
# B15: 1H12 IgG (antibody, V domains shown)
# VH: B1 VH
# VL: B1 VL
# B16: 2G12 IgG (wildtype, made in house) (antibody, V domains shown)
# VH: B1 VH
# VL: B1 VL with G1D, M92A, P93G, R95S, S97T
# B17: 2G12 Polymun (Cat. No. AB002, Polymun Scientific) (antibody, V domains shown)
# VH: B1 VH
# VL: B1 VL with G1D, M92A, P93G, R95S, S97T
# B18: P1F9 IgG (antibody, V domains shown)
# VH: B1 VH
# VL: B2 VL with T92R, D93A, R95T
# B19: A5G10 IgG (antibody, V domains shown)
# VH: B1 VH
# VL: B2 VL with T92R, D93P, R95T
# B20: A1G7 IgG (antibody, V domains shown)
# VH: B1 VH
# VL: B2 VL
# B21: A4F10 IgG (antibody, V domains shown)
# VH: B1 VH
# VL: B2 VL with R95Y
# B22: A1E8 IgG (antibody, V domains shown)
# VH: B1 VH
# VL: B2 VL with R95K
# B23: P2H12 IgG (antibody, V domains shown)
# VH: B1 VH
# VL: B2 VL with R95H
# B24: A2A12 IgG (antibody, V domains shown)
# VH: B1 VH
# VL: B2 VL with D93A, R95T
# B25: P4H12 IgG (antibody, V domains shown)
# VH: B1 VH
# VL: B2 VL with D93A
# Target: Candida albicans (Cat. No. 10231, ATCC) whole cells (Candida albicans)
# Experiment: converted from Table 20a with a Fab of about 50 kDa
row,Binder,affinity (converted to molar) [nM]
1,B1,180
2,B2,30
3,B3,20
4,B4,40

# Target: Candida albicans (Cat. No. 10231, ATCC) whole cells (Candida albicans)
# Experiment: C. albicans FACS, mean FITC fluorescence, Fab; assay background 100
row,Binder,FACS (MF)
1,B1,2080
2,B5,10600
3,B6,2350
4,B7,3380
5,B8,8910
6,B9,3760
7,B10,10600
8,B11,4930
9,B12,4000
10,B13,2190

# Target: Candida albicans (Cat. No. 10231, ATCC) whole cells (Candida albicans)
# Experiment: FACS, IgG on fixed C. albicans cells, concentration at 50% maximum binding
row,Binder,EC50 [nM]
1,B14,15.1
2,B15,5.2
3,B16,150
4,B17,500

# Target: Candida albicans (Cat. No. 10231, ATCC) whole cells (Candida albicans)
# Experiment: luminescent C. albicans ELISA, Fab; assay background 950
row,Binder,ELISA (RFU)
1,B1,1710
2,B5,27000
3,B6,4000
4,B7,50000
5,B8,8000
6,B9,13000
7,B10,7900
8,B11,3500
9,B12,8140
10,B13,5000

# Target: Candida glabrata clinical isolate, whole cells (Candida glabrata)
# Experiment: FACS, IgG on fixed cells
row,Binder,affinity [nM]
1,B18,102
2,B19,72
3,B15,12

# Target: Candida krusei clinical isolate, whole cells (Candida krusei)
# Experiment: FACS, IgG on fixed cells
row,Binder,affinity [nM]
1,B18,27
2,B20,50
3,B21,50
4,B19,50
5,B15,17
6,B22,50
7,B23,50
8,B24,50
9,B17,1000

# Target: Candida tropicalis clinical isolate, whole cells (Candida tropicalis)
# Experiment: FACS, IgG on fixed cells
row,Binder,affinity [nM]
1,B18,51
2,B15,23
3,B25,21

# Target: Candida albicans (Cat. No. 10231, ATCC) whole cells (Candida albicans)
# Experiment: FACS, IgG on fixed cells
row,Binder,affinity [nM]
1,B18,23
2,B20,50
3,B21,50
4,B19,50
5,B15,10
6,B22,50
7,B23,50
8,B24,50
9,B17,500

# Target: Candida albicans (Cat. No. 10231, ATCC) whole cells (Candida albicans)
# Experiment: luminescent ELISA, Fab on C. albicans cells
row,Binder,Approximate Affinity [µg/mL]
1,B1,9
2,B2,1.5
3,B3,1
4,B4,2

# Target: Candida albicans (Cat. No. 10231, ATCC) whole cells (Candida albicans)
# Experiment: colorimetric ELISA on C. albicans cells
Binder,EC50 [nM],fold higher affinity than 2G12 Polymun [fold]
B18,3.2,–
B15,0.82,–
B16,–,8
B17,500,–

# Target: Candida albicans (Cat. No. 10231, ATCC) whole cells (Candida albicans)
# Experiment: FACS, IgG on fixed C. albicans cells; end tied to 1H12 by Table 23
row,Binder,fold increased binding affinity against wildtype 2G12 [fold]
1,B15,30

# Target: Candida albicans (Cat. No. 10231, ATCC) whole cells (Candida albicans)
# Experiment: FACS, IgG on fixed C. albicans cells; end tied to 1F8 by Table 23
row,Binder,fold increased binding affinity against wildtype 2G12 [fold]
1,B14,10

# Target: Candida albicans (Cat. No. 10231, ATCC) whole cells (Candida albicans)
# Experiment: luminescent ELISA on C. albicans cells
row,Binder,EC50 [nM]
1,B18,19
2,B15,6.1

# Target: Candida albicans (Cat. No. 10231, ATCC) whole cells (Candida albicans)
# Experiment: colorimetric ELISA on C. albicans cells, [50% Max]
row,Binder,EC50 [nM]
1,B14,0.9
2,B15,0.4
3,B16,9.7
4,B17,76.3
